Positions count from the first letter of the chain named.
What was measured:
[1] = test system: T1, human FEAT D274A/D288A mutant
T1 sequence: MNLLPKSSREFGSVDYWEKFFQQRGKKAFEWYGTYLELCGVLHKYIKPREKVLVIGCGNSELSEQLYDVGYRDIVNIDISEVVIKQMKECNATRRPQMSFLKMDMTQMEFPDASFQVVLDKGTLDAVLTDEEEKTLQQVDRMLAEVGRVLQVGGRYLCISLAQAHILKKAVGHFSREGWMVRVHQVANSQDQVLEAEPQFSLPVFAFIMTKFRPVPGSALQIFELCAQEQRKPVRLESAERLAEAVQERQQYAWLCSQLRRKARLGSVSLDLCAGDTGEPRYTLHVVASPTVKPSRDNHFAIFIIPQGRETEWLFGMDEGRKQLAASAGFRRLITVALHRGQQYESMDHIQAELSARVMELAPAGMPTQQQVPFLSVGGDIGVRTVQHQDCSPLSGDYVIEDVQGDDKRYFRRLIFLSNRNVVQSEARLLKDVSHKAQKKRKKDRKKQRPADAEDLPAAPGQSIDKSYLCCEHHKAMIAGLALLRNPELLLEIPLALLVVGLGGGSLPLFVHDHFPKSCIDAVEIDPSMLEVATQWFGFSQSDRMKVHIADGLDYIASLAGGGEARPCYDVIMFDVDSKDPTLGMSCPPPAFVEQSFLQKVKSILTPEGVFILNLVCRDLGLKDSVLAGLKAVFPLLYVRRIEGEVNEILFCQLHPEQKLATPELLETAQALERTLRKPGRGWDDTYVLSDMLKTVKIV

[2] = test system: T2, human FEAT protein (faint expression in normal tissues, aberrant overexpression in tumors)
T2 sequence: T1 sequence with A274D, A288D

| Substance | caspase-3 cleavage of FEAT with Asp-to-Ala mutations in the cleavage sites [1] | cleavage of in vitro transcribed/translated [35S]-FEAT (SDS-PAGE, autoradiography) [2] |
| --- | --- | --- |
| His-tagged recombinant caspase-3 | are resistant to caspase-3 cleavage | FEAT transcribed/translated in vitro was cleaved by caspase-3, but not by caspase-6 |
| His-tagged recombinant caspase-6 | – | FEAT transcribed/translated in vitro was cleaved by caspase-3, but not by caspase-6 |

Reference: patent US20130212721
